Assay results published in patent US20140086935A1 (Bayer, published 2014).

Key:
[1] = target: T1, rat TIMP-1 (rat, UniProt P30120 24-217); assay: cell-based or functional assay
[2] = target: T1, rat TIMP-1; assay: SPR (BIAcore), TIMP-1 coupled to chip, monovalent Fab
Experimental: For affinity determination, monomeric fractions of affinity and SEC purified Fab fragments or purified IgG1 molecules were used. All experiments were conducted in HBS buffer at a flow rate of 20 μl/min at 25° C. on a BIAcore™ instrument. Antigens in 100 mM sodium acetate pH 5.0 were coupled to a CM 5 sensor chip using standard EDC-NHS coupling chemistry. […] All sensograms were fitted globally using BIA evaluation software. For monovalent Fab fragments a monovalent fit (Langmuir binding) and for IgGs a bivalent fit was applied.

T1 sequence (P30120 24-217 limits assumed): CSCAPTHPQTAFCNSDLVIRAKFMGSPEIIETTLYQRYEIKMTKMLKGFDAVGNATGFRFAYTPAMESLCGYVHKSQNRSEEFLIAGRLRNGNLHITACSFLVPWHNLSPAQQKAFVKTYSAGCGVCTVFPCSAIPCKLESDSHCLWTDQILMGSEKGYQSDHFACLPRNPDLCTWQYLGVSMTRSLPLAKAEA

IC50 in rat protease assay [1] [nM] | Kd [2] [nM] | Binder
> 300 | ~256 | MS-BW-9 (Fab, V domains shown, Fab, FLAG + Strep-tag II; not tied by name) VH: not shown VL: DIVLTQPPSVSGAPGQRVTISCSGSSSNIGSNYVSWYQQLPGTAPKLLIYDNNQRPSGVPDRFSGSKSGTSASLAITGLQSEDEADYYCQSYDGFKTHVFGGGTKLTVLG
 | ~210 | MS-BW-5 (Fab, V domains shown, Fab, FLAG + Strep-tag II; not tied by name) VH: QVQLVQSGAEVKKPGSSVKVSCKASGGTFSSYAISWVRQAPGQGLEWMGGIIPIFGTANYAQKFQGRVTITADESTSTAYMELSSLRSEDTAVYYCARGLYWAVYPYFDFWGQGTLVTVSS VL: DIVLTQPPSVSGAPGQRVTISCSGSSSNIGSNYVSWYQQLPGTAPKLLIYDNNQRPSGVPDRFSGSKSGTSASLAITGLQSEDEADYYCQSRDFNRGPVFGGGTKLTVLG
~100 | ~68 | MS-BW-6 (Fab, V domains shown, Fab, FLAG + Strep-tag II; not tied by name) VH: not shown VL: DIVLTQPPSVSGAPGQRVTISCSGSSSNIGSNYVSWYQQLPGTAPKLLIYDNNQRPSGVPDRFSGSKSGTSASLAITGLQSEDEADYYCQSYDQRKWVFGGGTKLTVLG
~200 | ~80 | MS-BW-15 (Fab, V domains shown, Fab, FLAG + Strep-tag II; not tied by name) VH: not shown VL: DIALTQPASVSGSPGQSITISCTGTSSDVGGYNYVSWYQQHPGKAPKLMIYDVSNRPSGVSNRFSGSKSGNTASLTISGLQAEDEADYYCQSYDVLDSEVFGGGTKLTVLG
> 300 | ~187 | MS-BW-19 (Fab, V domains shown, Fab, FLAG + Strep-tag II; not tied by name) VH: QVQLVQSGAEVKKPGESLKISCKGSGYSFTSYWIGWVRQMPGKGLEWMGIIYPGDSDTRYSPSFQGQVTISADKSISTAYLQWSSLKASDTAMYYCARYVTYGYDDYHFDYWGQGTLVTVSS VL: DIALTQPASVSGSPGQSITISCTGTSSDVGGYNYVSWYQQHPGKAPKLMIYDVSNRPSGVSNRFSGSKSGNTASLTISGLQAEDEADYYCQSWDINHAIVFGGGTKLTVLG
> 300 | ~70 | MS-BW-20 (Fab, V domains shown, Fab, FLAG + Strep-tag II; not tied by name) VH: QVQLVQSGAEVKKPGSSVKVSCKASGGTFSSYAISWVRQAPGQGLEWMGGIIPIFGTANYAQKFQGRVTITADESTSTAYMELSSLRSEDTAVYYCARSGYLDYWGQGTLVTVSS VL: DIALTQPASVSGSPGQSITISCTGTSSDVGGYNYVSWYQQHPGKAPKLMIYDVSNRPSGVSNRFSGSKSGNTASLTISGLQAEDEADYYCQSYDYYDYGVFGGGTKLTVLG
> 300 | ~153 | MS-BW-18 (Fab, V domains shown, Fab, FLAG + Strep-tag II; not tied by name) VH: QVQLVQSGAEVKKPGESLKISCKGSGYSFTSYWIGWVRQMPGKGLEWMGIIYPGDSDTRYSPSFQGQVTISADKSISTAYLQWSSLKASDTAMYYCARLVGGGYDLMFDSWGQGTLVTVSS VL: DIALTQPASVSGSPGQSITISCTGTSSDVGGYNYVSWYQQHPGKAPKLMIYDVSNRPSGVSNRFSGSKSGNTASLTISGLQAEDEADYYCQSYDDMQFVFGGGTKLTVLG
> 100 | ~36 | MS-BW-30 (Fab, V domains shown, Fab, FLAG + Strep-tag II; not tied by name) VH: QVQLVQSGAEVKKPGESLKISCKGSGYSFTSYWIGWVRQMPGKGLEWMGIIYPGDSDTRYSPSFQGQVTISADKSISTAYLQWSSLKASDTAMYYCARYAGHQYEFFFDFWGQGTLVTVSS VL: DIELTQPPSVSVAPGQTARISCSGDALGDKYASWYQQKPGQAPVLVIYDDSDRPSGIPERFSGSNSGNTATLTISGTQAEDEADYYCQSRDPVGFPVFGGGTKLTVLG
> 100 | ~13 | MS-BW-31 (Fab, V domains shown, Fab, FLAG + Strep-tag II; not tied by name) VH: QVQLVQSGAEVKKPGESLKISCKGSGYSFTSYWIGWVRQMPGKGLEWMGIIYPGDSDTRYSPSFQGQVTISADKSISTAYLQWSSLKASDTAMYYCARLYADADIYFDYWGQGTLVTVSS VL: DIALTQPASVSGSPGQSITISCTGTSSDVGGYNYVSWYQQHPGKAPKLMIYDVSNRPSGVSNRFSGSKSGNTASLTISGLQAEDEADYYCQSYDLSPRVFGGGTKLTVLG
> 100 | 10 | MS-BW-37 (Fab, V domains shown, Fab, FLAG + Strep-tag II; not tied by name) VH: QVQLVQSGAEVKKPGESLKISCKGSGYSFTSYWIGWVRQMPGKGLEWMGIIYPGDSDTRYSPSFQGQVTISADKSISTAYLQWSSLKASDTAMYYCARLFAGLELYFDYWGQGTLVTVSS VL: DIALTQPASVSGSPGQSITISCTGTSSDVGGYNYVSWYQQHPGKAPKLMIYDVSNRPSGVSNRFSGSKSGNTASLTISGLQAEDEADYYCQSYDLRNRVFGGGTKLTVLG
> 100 | ~214 | MS-BW-29 (Fab, V domains shown, Fab, FLAG + Strep-tag II; not tied by name) VH: QVQLVQSGAEVKKPGESLKISCKGSGYSFTSYWIGWVRQMPGKGLEWMGIIYPGDSDTRYSPSFQGQVTISADKSISTAYLQWSSLKASDTAMYYCARHDFDGSIFMDFWGQGTLVTVSS VL: DIALTQPASVSGSPGQSITISCTGTSSDVGGYNYVSWYQQHPGKAPKLMIYDVSNRPSGVSNRFSGSKSGNTASLTISGLQAEDEADYYCQSYDVTPRVFGGGTKLTVLG
> 300 | ~419 | MS-BW-12 (Fab, V domains shown, Fab, FLAG + Strep-tag II; not tied by name) VH: QVQLQQSGPGLVKPSQTLSLTCAISGDSVSSNSAAWNWIRQSPGRGLEWLGRTYYRSKWYNDYAVSVKSRITINPDTSKNQFSLQLNSVTPEDTAVYYCARGYADISFDYWGQGTLVTVSS VL: DIALTQPASVSGSPGQSITISCTGTSSDVGGYNYVSWYQQHPGKAPKLMIYDVSNRPSGVSNRFSGSKSGNTASLTISGLQAEDEADYYCQSYDMIARYPVFGGGTKLTVLG
65 | 35 | MS-BW-22 (Fab, V domains shown, Fab, FLAG + Strep-tag II; not tied by name) VH: QVQLVQSGAEVKKPGESLKISCKGSGYSFTSYWIGWVRQMPGKGLEWMGIIYPGDSDTRYSPSFQGQVTISADKSISTAYLQWSSLKASDTAMYYCARFRAYGDDFYFDVWGQGTLVTVSS VL: DIALTQPASVSGSPGQSITISCTGTSSDVGGYNYVSWYQQHPGKAPKLMIYDVSNRPSGVSNRFSGSKSGNTASLTISGLQAEDEADYYCQSWDNLKMPVVFGGGTKLTVLG
> 300 | ~207 | MS-BW-23 (Fab, V domains shown, Fab, FLAG + Strep-tag II; not tied by name) VH: QVQLVQSGAEVKKPGASVKVSCKASGYTFTSYYMHWVRQAPGQGLEWMGWINPNSGGTNYAQKFQGRVTMTRDTSISTAYMELSSLRSEDTAVYYCARIMWSDYGQLVKGGDIWGQGTLVTVSS VL: DIALTQPASVSGSPGQSITISCTGTSSDVGGYNYVSWYQQHPGKAPKLMIYDVSNRPSGVSNRFSGSKSGNTASLTISGLQAEDEADYYCQSYDVFPINRVFGGGTKLTVLG
 | ~939 | MS-BW-13 (Fab, V domains shown, Fab, FLAG + Strep-tag II; not tied by name) VH: not shown VL: DIELTQPPSVSVAPGQTARISCSGDALGDKYASWYQQKPGQAPVLVIYDDSDRPSGIPERFSGSNSGNTATLTISGTQAEDEADYYCQSWDIHPFDVVFGGGTKLTVLG
19 | ~36 | MS-BW-62 (Fab, V domains shown, Fab, FLAG + Strep-tag II; not tied by name) VH: QVQLVQSGAEVKKPGESLKISCKGSGYSFTSYWIGWVRQMPGKGLEWMGIIYPGDSDTRYSPSFQGQVTISADKSISTAYLQWSSLKASDTAMYYCARLFTYPFLYFDVWGQGTLVTVSS VL: DIALTQPASVSGSPGQSITISCTGTSSDVGGYNYVSWYQQHPGKAPKLMIYDVSNRPSGVSNRFSGSKSGNTASLTISGLQAEDEADYYCQSDFPVMVFGGGTKLTVLG
20 | 23 | MS-BW-24 (Fab, V domains shown, Fab, FLAG + Strep-tag II; not tied by name) VH: QVQLVQSGAEVKKPGESLKISCKGSGYSFTSYWIGWVRQMPGKGLEWMGIIYPGDSDTRYSPSFQGQVTISADKSISTAYLQWSSLKASDTAMYYCARYYVTDTAYFDYWGQGTLVTVSS VL: DIALTQPASVSGSPGQSITISCTGTSSDVGGYNYVSWYQQHPGKAPKLMIYDVSNRPSGVSNRFSGSKSGNTASLTISGLQAEDEADYYCQSDLYFPVFGGGTKLTVLG
20 | ~14 | MS-BW-63 (Fab, V domains shown, Fab, FLAG + Strep-tag II; not tied by name) VH: QVQLVQSGAEVKKPGESLKISCKGSGYSFTSYWIGWVRQMPGKGLEWMGIIYPGDSDTRYSPSFQGQVTISADKSISTAYLQWSSLKASDTAMYYCARILTGHVLLFDYWGQGTLVTVSS VL: DIALTQPASVSGSPGQSITISCTGTSSDVGGYNYVSWYQQHPGKAPKLMIYDVSNRPSGVSNRFSGSKSGNTASLTISGLQAEDEADYYCQSDNPYLVFGGGTKLTVLG
~30 | ~200 | MS-BW-10 (Fab, V domains shown, Fab, FLAG + Strep-tag II; not tied by name) VH: QVQLVQSGAEVKKPGASVKVSCKASGYTFTSYYMHWVRQAPGQGLEWMGWINPNSGGTNYAQKFQGRVTMTRDTSISTAYMELSSLRSEDTAVYYCARLVGIVGYKPDELLYFDVWGQGTLVTVSS VL: DIELTQPPSVSVAPGQTARISCSGDALGDKYASWYQQKPGQAPVLVIYDDSDRPSGIPERFSGSNSGNTATLTISGTQAEDEADYYCQSYDYSLLVFGGGTKLTVLG
> 300 | ~200 | MS-BW-11 (Fab, V domains shown, Fab, FLAG + Strep-tag II; not tied by name) VH: not shown VL: DIELTQPPSVSVAPGQTARISCSGDALGDKYASWYQQKPGQAPVLVIYDDSDRPSGIPERFSGSNSGNTATLTISGTQAEDEADYYCQSYDFNFHVFGGGTKLTVLG
> 300 | ~168 | MS-BW-7 (Fab, V domains shown) VH: QVQLVQSGAEVKKPGSSVKVSCKASGGTFSSYAISWVRQAPGQGLEWMGGIIPIFGTANYAQKFQGRVTITADESTSTAYMELSSLRSEDTAVYYCARTYYYFDSWGQGTLVTVSS VL: not shown
 | ~138 | MS-BW-58 (Fab, V domains shown, Fab, FLAG + Strep-tag II; not tied by name) VH: QVQLQQSGPGLVKPSQTLSLTCAISGDSVSSNSAAWNWIRQSPGRGLEWLGRTYYRSKWYNDYAVSVKSRITINPDTSKNQFSLQLNSVTPEDTAVYYCARWMTPPGHYYGYTFDVWGQGTLVTVSS VL: DIELTQPPSVSVAPGQTARISCSGDALGDKYASWYQQKPGQAPVLVIYDDSDRPSGIPERFSGSNSGNTATLTISGTQAEDEADYYCQSWDPSHYYVFGGGTKLTVLG
